Measurements: paper PMC9601244

Molecular target: NGAL (neutrophil gelatinase-associated lipocalin) (UniProt P80188 24-198, C107S)
Assay: dipstick lateral-flow sandwich assay

Sequence of NGAL (neutrophil gelatinase-associated lipocalin) (P80188 24-198 C107S): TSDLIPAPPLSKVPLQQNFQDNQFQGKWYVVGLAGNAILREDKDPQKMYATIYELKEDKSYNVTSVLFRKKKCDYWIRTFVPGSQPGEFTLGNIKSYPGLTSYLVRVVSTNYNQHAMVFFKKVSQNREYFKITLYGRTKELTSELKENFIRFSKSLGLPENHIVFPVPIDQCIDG

## ATGGCGGAGCTGGATAGTATAGTCGG (ssDNA) [NGAL truncated aptamer, biotinylated (26-base)]
  binding result: binds
